Assay results from the supplement of paper PMC10724198.

Columns and labels:
Saccharomyces cerevisiae [1] = test: protein stability index of tFT-peptide fusion in wild type (PSI (0-1 scale)); higher = more stable (slower turnover); details: genetic background: wild type
Saccharomyces cerevisiae [2] = test: protein stability index of tFT-peptide fusion in deletion strain of DOA10 (PSI (0-1 scale)); higher = more stable (slower turnover)
Procedure: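 MPS profiling in S. cerevisiae of two library types built from selected 12-aa C-degron peptides (IN1, IN2, LN1, LN3, VN2, R1-R5, W1-W3, Atg1 and Rpa12 C-termini): saturation mutagenesis libraries and C-terminal +1 capping libraries (13 aa). Each peptide is fused to the C-terminus of a sfGFP-mCherry timer, after a GGGS linker. Cells are FACS-sorted into 8 mCherry/sfGFP bins and sequenced. PSI runs from 0 (unstable) to 1 (stable), measured once in wild type and in the das1Δ or doa10Δ background.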
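For protein stability index of tFT-peptide fusion in deletion strain of DOA10 in this document: PSI per variant is the weighted mean of its sequencing read distribution over the sorted stability bins, counting only variants with over 10 reads summed across bins.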
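For protein stability index of tFT-peptide fusion in wild type in this document: PSI derived as read-weighted mean over the 8 sorting bins, only variants exceeding 10 total reads kept, mCherry placed adjacent to the peptide and sfGFP distal.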

Sequence	protein stability index (Saccharomyces cerevisiae [1])	protein stability index (Saccharomyces cerevisiae [2])
RFLRVLLPLYFR	0.381	0.666
AITLPMCPLLLA	0.269	0.313
HSLRVLLPLYFR	0.309	0.669
RSVRVLLPLYFR	0.238	0.661
GLYMCSVGCWFD	0.471	0.518
RSLRVRLPLYFR	0.187	0.675
EVTRLDAIYFRI	0.435	0.701
RVTRLDAYYFRI	0.609	0.714
CLVWLPILLFFR	0.0521	0.359
GCYMCSVGCWFR	0.326	0.667
GLYDCSVGCWFR	0.56	0.716
RSLRVLLELYFR	0.557	0.593
AHTLPMCPLLLR	0.346	0.664
RSLRVLLWLYFR	0.166	0.524
CVVSLPILLFFR	0.0506	0.589
RVTRLDANYFRI	0.689	0.716
LLYMCSVGCWFR	0.348	0.571
GQYMCSVGCWFR	0.363	0.673
RVTRLDAIYFTI	0.548	0.64
GLYMPSVGCWFR	0.196	0.683

Sequence	protein stability index (Saccharomyces cerevisiae [1])	protein stability index (Saccharomyces cerevisiae [2])
GWYMCSVGCWFR	0.168	0.601
RVTRLDAIYFWI	0.523	0.561
CLVPLPILLFFR	0.0703	0.57
CLVALPILLFFR	0.0608	0.512
CLVSLPILLFGR	0.492	0.523
CLVSLPILLFFRY	0.0612	0.483
CLVSLPITLFFR	0.104	0.65
RSERVLLPLYFR	0.365	0.674
FITLPMCPLLLR	0.333	0.61
FLVSLPILLFFR	0.0831	0.539
GLYMCSVGCGFR	0.628	0.655
CLVSLPILLFFG	0.447	0.52
HLVSLPILLFFR	0.108	0.618
AITLPMPPLLLR	0.257	0.682
AITLPMCPWLLR	0.652	0.667
GLYMCSVWCWFR	0.305	0.399
RSLRKLLPLYFR	0.474	0.67
RVTRLDAIYERI	0.67	0.708
RVTRLDAIYKRI	0.667	0.698
CLVSLRILLFFR	0.152	0.282

Sequence	protein stability index (Saccharomyces cerevisiae [1])	protein stability index (Saccharomyces cerevisiae [2])
AIPLPMCPLLLR	0.28	0.653
GLYMSSVGCWFR	0.299	0.688
CLVSLPILLFFRT	0.0656	0.516
RVTRLDAIAFRI	0.673	0.708
GLYMCEVGCWFR	0.485	0.642
CDVSLPILLFFR	0.0512	0.648
ASLRVLLPLYFR	0.285	0.666
CLVGLPILLFFR	0.0666	0.589
AITLPLCPLLLR	0.19	0.647
RSGRVLLPLYFR	0.372	0.665
RPTRLDAIYFRI	0.504	0.666
GLYMRSVGCWFR	0.252	0.688
RSLRVLLPLYVR	0.202	0.35
AITLPMSPLLLR	0.276	0.673
CLVSLPINLFFR	0.0948	0.682
AITLPMCPLLDR	0.655	0.7
AITLPMCPLNLR	0.645	0.673
RSLRVLLYLYFR	0.235	0.479
